Consider two molecules from patent US20240010682A1 (UNIVERSIT T BASEL, published 2024).

Numbering of substitutions follows the chain as printed.

The target of experiment [1] is fibrin (Fb) network formed from human fibrinogen by thrombin (human) (UniProt P02671). Put plainly: two-colour confocal fluorescence microscopy of Fb clots formed at 22 C, Coloc2 in ImageJ.
Experiment [2] has the same target. The experiment can be described thus: two-colour confocal fluorescence microscopy of Fb clots formed at 37 C, Coloc2 in ImageJ.
In experiment [3] the target is T1, fibrin (Fb) network formed from human fibrinogen by thrombin (human, UniProt P02671 36-629; P02675 45-491; P02679 27-437, limits assumed).
T1 construct: Human fibrinogen (FIB 3; depleted of plasminogen, fibronectin and von Willebrand Factor), spiked with 1% AlexaFluor 488-labelled fibrinogen and clotted with thrombin and CaCl2; In the imaging experiments it is a cross-linked gel, not a soluble protein; also called Fb clot; Fb fibers
T1 sequence (looked up) 1: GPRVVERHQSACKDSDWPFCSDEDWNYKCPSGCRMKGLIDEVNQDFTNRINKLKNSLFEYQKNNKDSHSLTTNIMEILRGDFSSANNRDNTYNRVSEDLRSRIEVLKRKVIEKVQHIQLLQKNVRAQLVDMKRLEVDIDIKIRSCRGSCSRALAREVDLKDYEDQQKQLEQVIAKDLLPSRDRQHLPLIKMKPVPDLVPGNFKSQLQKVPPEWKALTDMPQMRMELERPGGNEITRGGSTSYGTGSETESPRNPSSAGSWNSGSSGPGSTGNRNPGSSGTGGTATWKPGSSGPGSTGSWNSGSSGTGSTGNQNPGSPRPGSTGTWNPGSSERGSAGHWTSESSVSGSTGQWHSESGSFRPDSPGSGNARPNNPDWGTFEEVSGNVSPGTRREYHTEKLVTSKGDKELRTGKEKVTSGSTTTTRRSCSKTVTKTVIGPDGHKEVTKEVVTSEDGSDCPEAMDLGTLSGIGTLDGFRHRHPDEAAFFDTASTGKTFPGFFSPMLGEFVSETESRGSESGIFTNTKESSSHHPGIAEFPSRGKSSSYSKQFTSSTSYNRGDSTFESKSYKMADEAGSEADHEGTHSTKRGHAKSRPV
T1 sequence (looked up) 2: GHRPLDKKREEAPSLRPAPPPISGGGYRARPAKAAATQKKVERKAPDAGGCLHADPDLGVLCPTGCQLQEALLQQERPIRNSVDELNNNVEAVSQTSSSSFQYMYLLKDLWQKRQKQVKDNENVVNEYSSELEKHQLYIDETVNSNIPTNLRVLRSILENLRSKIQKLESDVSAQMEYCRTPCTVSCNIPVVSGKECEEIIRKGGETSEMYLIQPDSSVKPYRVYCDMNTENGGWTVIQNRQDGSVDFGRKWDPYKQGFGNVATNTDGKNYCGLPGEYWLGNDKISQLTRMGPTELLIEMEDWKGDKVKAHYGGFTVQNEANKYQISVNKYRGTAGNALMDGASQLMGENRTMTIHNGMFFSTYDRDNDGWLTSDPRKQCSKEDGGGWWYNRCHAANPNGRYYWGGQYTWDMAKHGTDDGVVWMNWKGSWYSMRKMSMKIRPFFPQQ
T1 sequence (looked up) 3: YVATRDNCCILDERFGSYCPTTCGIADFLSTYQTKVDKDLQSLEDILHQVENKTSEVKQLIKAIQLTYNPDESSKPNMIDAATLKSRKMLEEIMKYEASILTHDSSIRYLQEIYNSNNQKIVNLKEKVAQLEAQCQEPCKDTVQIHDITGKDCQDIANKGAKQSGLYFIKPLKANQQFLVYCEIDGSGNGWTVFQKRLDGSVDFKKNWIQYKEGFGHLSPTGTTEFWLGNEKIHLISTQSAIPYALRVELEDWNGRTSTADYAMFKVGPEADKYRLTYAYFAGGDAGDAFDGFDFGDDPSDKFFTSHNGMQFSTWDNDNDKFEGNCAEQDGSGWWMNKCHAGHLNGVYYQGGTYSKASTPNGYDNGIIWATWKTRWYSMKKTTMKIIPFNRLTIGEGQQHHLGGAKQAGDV
Put plainly: two-colour confocal fluorescence microscopy of Fb clots formed at 22 C, colocalisation (Coloc2). The text has this: The inventors N-terminally labelled hELPs and conELPs with Atto647-N-hydroxysuccinimide (red channel) and confirmed they were still cross-linked by FXIIIa. Fluorescent-hELPs (f-hELPs) or fluorescent-conELPs (f-conELPs) were then integrated into Fb clots spiked with 1% AlexaFluor 488-labelled fibrinogen (Fg-488, green channel). The inventors used two color confocal fluorescence microscopy to characterize hELP and Fb network morphology, degree of hELP and Fb colocalization, and the influence of hELP phase transition on clot architecture. […] The inventors observed little to no fluorescence intensity in the red channel when only HEPES buffer or f-conELP were added during formation of Fb networks (FIG. 3a, left, HEPES & conELP).
To quantify hELP and Fb spatial colocalization, the inventors used Coloc2 in ImageJ to calculate Pearson's correlation coefficients (PCC) (J. Adler, I. Parmryd, Cytom. Part A 2010, 77, 733). For f-hELP-Fb clots at 22° C., a PCC between f-hELP and Fb channels of 0.69±0.1 indicated high spatial correlation. For f-conELP-Fb clots, a PCC value of 0.05±0.09 indicated no spatial correlation (FIG. 3b).

B1: fluorescent hELP (f-hELP), hELP labelled with Atto647-N-hydroxysuccinimide (protein)
chain: MGHGVGVPGVGVPGAGVPGVGVPGVGVPGVGVPGVGVPGVGVPGVGVPGVGVPGEGVPGAGSGDQMMLPWPAVALSGVPGVGVPGVGVPGAGVPGVGVPGVGVPGVGVPGVGVPGVGVPGVGVPGVGVPGEGVPGAGSGDQMMLPWPAVALSGVPGVGVPGVGVPGAGVPGVGVPGVGVPGVGVPGVGVPGVGVPGVGVPGVGVPGEGVPGAGSGDQMMLPWPAVALSGVPGVGVPGVGVPGAGVPGVGVPGVGVPGVGVPGVGVPGVGVPGVGVPGVGVPGEGVPGAGSGDQMMLPWPAVALSGVPGVGVPGVGVPGAGVPGVGVPGVGVPGVGVPGVGVPGVGVPGVGVPGVGVPGEGVPGAGVPGVGVPGVGVPGAGVPGVGVPGVGVPGVGVPGVGVPGVGVPGVGVPGVGVPGEGVPGAGVPGVGVPGVGVPGAGVPGVGVPGVGVPGVGVPGVGVPGVGVPGVGVPGVGVPGEGVPGAGVPGVGVPGVGVPGAGVPGVGVPGVGVPGVGVPGVGVPGVGVPGVGVPGVGVPGEGVPGAGVPGVGVPGVGVPGAGVPGVGVPGVGVPGVGVPGVGVPGVGVPGVGVPGVGVPGEGVPGAGSGGSKGSSGVPGVGVPGVGVPGAGVPGVGVPGVGVPGVGVPGVGVPGVGVPGVGVPGVGVPGEGVPGAGSGGSKGSSGVPGVGVPGVGVPGAGVPGVGVPGVGVPGVGVPGVGVPGVGVPGVGVPGVGVPGEGVPGAGSGGSKGSSGVPGVGVPGVGVPGAGVPGVGVPGVGVPGVGVPGVGVPGVGVPGVGVPGVGVPGEGVPGAGSGGSKGSSGVPGWLDSLEFIA
modifications: chain 1 pos 1: N-terminal alpha-amine preferentially labelled with Atto647-NHS dye (about 0.95 dye per ELP), written M; minor labelling of K-block lysines is possible.
In the case of B1, the Pearson's correlation coefficient (PCC) between f-hELP and Fb channels in experiment [1] came to 0.69. Besides, the Pearson's correlation coefficient (PCC) between ELP and Fb channels in experiment [2] was determined as 0.163.

B2: fluorescent conELP (f-conELP), conELP labelled with Atto647-N-hydroxysuccinimide (other)
chain: B1 chain with Q65G, Q141G, Q217G, Q293G, K610G, K679G, K748G, K817G
modifications: chain 1 pos 1: N-terminal alpha-amine labelled with Atto647-NHS dye (about 0.95 dye per ELP), written M.
notes: also called f-conELPs; fluorescent-conELPs
For B2, the binding result in experiment [3] was “no binding (tested: 30 µM f-conELP)”.
